Experimental data as given in patent publication US20060148057A1, “Thioredoxin mutants and uses thereof” (priority 2002, published 2006).

Tested on: caspase 3
Assay: ASK1-induced caspase 3 activity assay in BAEC (Ac-DEVD-AMC substrate)
Format: cell-based, Bovine
Conditions: co-expression with ASK1; n=4, p<0.05
Method: Caspase 3 activity assay: Caspase 3 activity was measured with a Caspase 3 fluorescence kit (Sigma) according to the Manufacturer's protocol. Briefly, BAEC were harvested in Caspase 3 lysis buffer (25 mM Hepes, pH 7.4, 5 mM CHAPS, 5 mM DTT) and incubated on ice for 15-20 min followed by a centrifugation at 14,000× g for 10-15 min at 4° C. For each reaction, 5 μl (200 μg) of cell lysate was incubated with 200 μl of 16 μM Caspase 3 peptide substrate acetyl-ASP-Glu-Val-Asp-7 amido-4-methylcoumarin (Ac-DEVD-AMC) in the assay buffer (25 mM Hepes, pH 7.4, 5 mM EDTA, 0.1% CHAPS, 5 mM DTT) in the presence or absence of 100 μM Caspase 3 inhibitor (Ac-DEVD-CHO). The reaction was incubated in the dark for 1-1.5 h and fluorescence was measured in a fluorescence plate reader. The measured fluorescence was used as an arbitrary unit.
Then the effects. of Trx on ASK1-induced caspase 3 activation, a hallmark of the execution of apoptotic cell death (Green D R. Apoptotic pathways: paper wraps stone blunts scissors. Cell. 102:1-4 (2000); Hengartner MO. The biochemistry of apoptosis. Nature. 407:770-6 2000)) was examined. Caspase 3 activity was determined by an in vitro assay using peptide substrate acetyl-ASP-Glu-Val-Asp-7 amido-4-methylcounarin (Ac-DEVD-AMC). Overexpression of ASK1 in BAEC increased caspase 3 activity compared to the control cells (FIG. 6B).

inhibition of ASK1-induced caspase 3 activity: failed to block
B1: Trx-CS: double-mutant of C32S and C35S of Trx (protein)
chain: MVKQIESKTAFQEALDAAGDKLVVVDFSATWSGPSKMIKPFFHSLSEKYSNVIFLEVDVDDCQDVASECEVKCMPTFQFFKKGQKVGEFSGANKEKLEATINELV
modifications: left off: a dimerising Fc or GST; large carriers; small tags and cut ends
